According to patent US20130224235A1:

Columns and labels:
Experiment in all cases: indirect ELISA, protein coated, serum 1:100
[1] = target: 6xHis tagged C-terminal fusion protein (gp100 209-217(2M) peptide fused to PVA CP C-terminus) expres (Potato virus A (isolate B11)) (UniProt Q85197)
[2] = target: 6xHis tagged N-terminal fusion protein (gp100 209-217(2M) peptide fused to PVA CP N-terminus) expres (Potato virus A (isolate B11)) (UniProt Q85197)
[3] = target: 6xHis tagged wild type potato virus A coat protein (wtCP) expressed in E. coli from wtCP/pQE (Potato virus A (isolate B11)) (UniProt Q85197)

Measured: optical density at 450 nm

control mouse serum raised against PBS (antibody)
< 0.35 OD 450 nm: all assays above
